Data from patent publication US20070275900A1.

Molecular target: purified CD26 (dipeptidyl-peptidase IV, EC 3.4.14.5) (human) (UniProt P27487)
Assay: cell-based or functional assay

Sequence of purified CD26 (dipeptidyl-peptidase IV, EC 3.4.14.5) (human) (P27487 whole entry, form in doubt): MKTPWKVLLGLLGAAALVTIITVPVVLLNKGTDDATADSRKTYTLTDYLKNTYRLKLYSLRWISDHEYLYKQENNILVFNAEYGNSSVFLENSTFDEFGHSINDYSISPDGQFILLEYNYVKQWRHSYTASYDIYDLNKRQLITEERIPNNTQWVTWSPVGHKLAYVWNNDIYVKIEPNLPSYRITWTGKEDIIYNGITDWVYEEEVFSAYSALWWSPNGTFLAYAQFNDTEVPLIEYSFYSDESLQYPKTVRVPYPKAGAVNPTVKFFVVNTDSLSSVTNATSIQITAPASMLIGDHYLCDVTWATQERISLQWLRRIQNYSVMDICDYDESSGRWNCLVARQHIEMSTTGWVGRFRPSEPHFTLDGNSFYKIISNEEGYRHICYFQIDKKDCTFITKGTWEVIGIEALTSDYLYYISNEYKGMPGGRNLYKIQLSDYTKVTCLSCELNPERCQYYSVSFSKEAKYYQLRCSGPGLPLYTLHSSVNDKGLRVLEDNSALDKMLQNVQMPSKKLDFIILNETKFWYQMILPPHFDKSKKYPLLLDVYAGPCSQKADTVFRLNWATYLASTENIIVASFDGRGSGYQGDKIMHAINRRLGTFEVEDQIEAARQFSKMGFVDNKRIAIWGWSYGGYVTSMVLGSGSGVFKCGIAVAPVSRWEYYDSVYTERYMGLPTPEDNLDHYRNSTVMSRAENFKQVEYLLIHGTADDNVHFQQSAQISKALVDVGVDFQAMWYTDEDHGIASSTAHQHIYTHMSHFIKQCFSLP

Diprotin A (peptide)
inhibition of conversion of 50 µM CAM-405 to CAM-212 by purified CD26, 100 µM diprotin A: > 50%
